Source: patent US20140162945A1 (BEIJING HANMI PHARMACEUTICAL, published 2014)
Bridges are numbered along the chain shown (N, C = ends). Where no end group is shown, it is not given here. [ ]: non-standard residue; d: D form. The star is where a group is joined. Palmitoyl = CCCCCCCCCCCCCCCC(=O)*; Aib = CC(C)(N)C(=O)O

Experiments:
[1] = biological target: human GLP-1 receptor (human, UniProt P43220 24-463); experiment: cell-based or functional assay
[2] = biological target: T1, human GIP receptor (human, UniProt P48546 22-466); experiment: cell-based or functional assay
T1 sequence (looked up): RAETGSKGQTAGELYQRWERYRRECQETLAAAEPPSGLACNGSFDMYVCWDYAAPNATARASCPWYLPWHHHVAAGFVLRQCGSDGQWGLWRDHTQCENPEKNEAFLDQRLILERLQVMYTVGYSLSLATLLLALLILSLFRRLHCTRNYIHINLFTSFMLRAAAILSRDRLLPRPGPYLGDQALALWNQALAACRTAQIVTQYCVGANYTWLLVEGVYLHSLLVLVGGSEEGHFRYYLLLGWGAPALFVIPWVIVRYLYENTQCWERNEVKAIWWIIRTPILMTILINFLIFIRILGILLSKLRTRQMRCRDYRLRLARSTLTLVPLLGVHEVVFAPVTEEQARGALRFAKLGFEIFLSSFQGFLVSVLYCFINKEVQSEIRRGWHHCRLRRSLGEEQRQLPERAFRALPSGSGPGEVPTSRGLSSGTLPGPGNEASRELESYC

human GLP-1 receptor, sequence (P43220 24-463): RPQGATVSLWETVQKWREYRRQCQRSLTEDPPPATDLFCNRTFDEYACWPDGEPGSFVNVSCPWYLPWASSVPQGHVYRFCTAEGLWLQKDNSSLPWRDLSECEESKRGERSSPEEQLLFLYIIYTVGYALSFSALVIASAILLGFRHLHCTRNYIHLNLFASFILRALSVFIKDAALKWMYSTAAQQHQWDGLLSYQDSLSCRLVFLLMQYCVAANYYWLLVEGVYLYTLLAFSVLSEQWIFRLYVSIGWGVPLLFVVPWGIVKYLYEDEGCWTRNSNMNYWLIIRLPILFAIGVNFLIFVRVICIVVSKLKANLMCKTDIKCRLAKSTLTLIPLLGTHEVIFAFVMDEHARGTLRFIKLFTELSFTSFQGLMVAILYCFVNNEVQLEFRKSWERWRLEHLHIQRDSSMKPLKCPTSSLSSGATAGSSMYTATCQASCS

B1: Analog 057 (peptide)
peptide: Y[Aib]EGTFTSDYSIYMEKEAVKEFIAWLVKG-NH2
modifications: N-terminus assumed
SMILES: CC[C@H](C)[C@H](NC(=O)[C@H](Cc1ccccc1)NC(=O)[C@H](CCC(=O)O)NC(=O)[C@H](CCCCN)NC(=O)[C@@H](NC(=O)[C@H](C)NC(=O)[C@H](CCC(=O)O)NC(=O)[C@H](CCCCN)NC(=O)[C@H](CCC(=O)O)NC(=O)[C@H](CCSC)NC(=O)[C@H](Cc1ccc(O)cc1)NC(=O)[C@@H](NC(=O)[C@H](CO)NC(=O)[C@H](Cc1ccc(O)cc1)NC(=O)[C@H](CC(=O)O)NC(=O)[C@H](CO)NC(=O)[C@@H](NC(=O)[C@H](Cc1ccccc1)NC(=O)[C@@H](NC(=O)CNC(=O)[C@H](CCC(=O)O)NC(=O)C(C)(C)NC(=O)[C@@H](N)Cc1ccc(O)cc1)[C@@H](C)O)[C@@H](C)O)[C@@H](C)CC)C(C)C)C(=O)N[C@@H](C)C(=O)N[C@@H](Cc1c[nH]c2ccccc12)C(=O)N[C@@H](CC(C)C)C(=O)N[C@H](C(=O)N[C@@H](CCCCN)C(=O)NCC(N)=O)C(C)C
[1]
  EC50, GLP-1 Receptor cAMP induction: 4.23 nM
[2]
  EC50, GIP Receptor cAMP induction: 0.57 nM
  Relative Potency, GIP Receptor: 36.8%

B2: Analog 053-2 (peptide)
peptide: Y[Aib]EGTFTSDYSIYMEKEAVEEFIAWLVKG-NH2
modifications: lactam 16-20; N-terminus assumed
SMILES: CC[C@H](C)[C@H](NC(=O)[C@H](Cc1ccccc1)NC(=O)[C@H](CCC(=O)O)NC(=O)[C@@H]1CCC(=O)NCCCC[C@H](NC(=O)[C@H](CCC(=O)O)NC(=O)[C@H](CCSC)NC(=O)[C@H](Cc2ccc(O)cc2)NC(=O)[C@@H](NC(=O)[C@H](CO)NC(=O)[C@H](Cc2ccc(O)cc2)NC(=O)[C@H](CC(=O)O)NC(=O)[C@H](CO)NC(=O)[C@@H](NC(=O)[C@H](Cc2ccccc2)NC(=O)[C@@H](NC(=O)CNC(=O)[C@H](CCC(=O)O)NC(=O)C(C)(C)NC(=O)[C@@H](N)Cc2ccc(O)cc2)[C@@H](C)O)[C@@H](C)O)[C@@H](C)CC)C(=O)N[C@@H](CCC(=O)O)C(=O)N[C@@H](C)C(=O)N[C@@H](C(C)C)C(=O)N1)C(=O)N[C@@H](C)C(=O)N[C@@H](Cc1c[nH]c2ccccc12)C(=O)N[C@@H](CC(C)C)C(=O)N[C@H](C(=O)N[C@@H](CCCCN)C(=O)NCC(N)=O)C(C)C
[1]
  EC50, GLP-1 Receptor cAMP induction: 2.96 nM
  Relative Potency, GLP-1 Receptor: 37%
[2]
  EC50, GIP Receptor cAMP induction: 0.48 nM
  Relative Potency, GIP Receptor: 35.4%

B3: Analog 060 (peptide)
peptide: Y[Aib]EGTFTSDYSIYMEKEAVREFIAWLVKGKKKKK-NH2
modifications: N-terminus assumed
SMILES: CC[C@H](C)[C@H](NC(=O)[C@H](Cc1ccccc1)NC(=O)[C@H](CCC(=O)O)NC(=O)[C@H](CCCNC(=N)N)NC(=O)[C@@H](NC(=O)[C@H](C)NC(=O)[C@H](CCC(=O)O)NC(=O)[C@H](CCCCN)NC(=O)[C@H](CCC(=O)O)NC(=O)[C@H](CCSC)NC(=O)[C@H](Cc1ccc(O)cc1)NC(=O)[C@@H](NC(=O)[C@H](CO)NC(=O)[C@H](Cc1ccc(O)cc1)NC(=O)[C@H](CC(=O)O)NC(=O)[C@H](CO)NC(=O)[C@@H](NC(=O)[C@H](Cc1ccccc1)NC(=O)[C@@H](NC(=O)CNC(=O)[C@H](CCC(=O)O)NC(=O)C(C)(C)NC(=O)[C@@H](N)Cc1ccc(O)cc1)[C@@H](C)O)[C@@H](C)O)[C@@H](C)CC)C(C)C)C(=O)N[C@@H](C)C(=O)N[C@@H](Cc1c[nH]c2ccccc12)C(=O)N[C@@H](CC(C)C)C(=O)N[C@H](C(=O)N[C@@H](CCCCN)C(=O)NCC(=O)N[C@@H](CCCCN)C(=O)N[C@@H](CCCCN)C(=O)N[C@@H](CCCCN)C(=O)N[C@@H](CCCCN)C(=O)N[C@@H](CCCCN)C(N)=O)C(C)C
[1]
  EC50, GLP-1 Receptor cAMP induction: 2.97 nM
  Relative Potency, GLP-1 Receptor: 36.8%
[2]
  EC50, GIP Receptor cAMP induction: 2.5 nM
  Relative Potency, GIP Receptor: 8.4%

B4: Analog 066 (peptide)
peptide: Y[Aib]EGTFTSDYSIYMEKEAVREFIAWLVKGGPSSGAPPPSK-NH2
modifications: N-terminus assumed
SMILES: CC[C@H](C)[C@H](NC(=O)[C@H](Cc1ccccc1)NC(=O)[C@H](CCC(=O)O)NC(=O)[C@H](CCCNC(=N)N)NC(=O)[C@@H](NC(=O)[C@H](C)NC(=O)[C@H](CCC(=O)O)NC(=O)[C@H](CCCCN)NC(=O)[C@H](CCC(=O)O)NC(=O)[C@H](CCSC)NC(=O)[C@H](Cc1ccc(O)cc1)NC(=O)[C@@H](NC(=O)[C@H](CO)NC(=O)[C@H](Cc1ccc(O)cc1)NC(=O)[C@H](CC(=O)O)NC(=O)[C@H](CO)NC(=O)[C@@H](NC(=O)[C@H](Cc1ccccc1)NC(=O)[C@@H](NC(=O)CNC(=O)[C@H](CCC(=O)O)NC(=O)C(C)(C)NC(=O)[C@@H](N)Cc1ccc(O)cc1)[C@@H](C)O)[C@@H](C)O)[C@@H](C)CC)C(C)C)C(=O)N[C@@H](C)C(=O)N[C@@H](Cc1c[nH]c2ccccc12)C(=O)N[C@@H](CC(C)C)C(=O)N[C@H](C(=O)N[C@@H](CCCCN)C(=O)NCC(=O)NCC(=O)N1CCC[C@H]1C(=O)N[C@@H](CO)C(=O)N[C@@H](CO)C(=O)NCC(=O)N[C@@H](C)C(=O)N1CCC[C@H]1C(=O)N1CCC[C@H]1C(=O)N1CCC[C@H]1C(=O)N[C@@H](CO)C(=O)N[C@@H](CCCCN)C(N)=O)C(C)C
[1]
  EC50, GLP-1 Receptor cAMP induction: 2.5 nM
  Relative Potency, GLP-1 Receptor: 43.7%
[2]
  EC50, GIP Receptor cAMP induction: 0.34 nM
  Relative Potency, GIP Receptor: 50%

## Y[Aib]EGTFTSDYSIYMEKEAVREFIAWLVK(Palmitoyl)G-NH2 [Analog 046]
[1]
  EC50, GLP-1 Receptor cAMP induction: 6.52 nM

B5: Analog 053-1 (peptide)
peptide: Y[Aib]EGTFTSDYSIYMEKEAVEEFIAWLVKG-NH2
modifications: N-terminus assumed
SMILES: CC[C@H](C)[C@H](NC(=O)[C@H](Cc1ccccc1)NC(=O)[C@H](CCC(=O)O)NC(=O)[C@H](CCC(=O)O)NC(=O)[C@@H](NC(=O)[C@H](C)NC(=O)[C@H](CCC(=O)O)NC(=O)[C@H](CCCCN)NC(=O)[C@H](CCC(=O)O)NC(=O)[C@H](CCSC)NC(=O)[C@H](Cc1ccc(O)cc1)NC(=O)[C@@H](NC(=O)[C@H](CO)NC(=O)[C@H](Cc1ccc(O)cc1)NC(=O)[C@H](CC(=O)O)NC(=O)[C@H](CO)NC(=O)[C@@H](NC(=O)[C@H](Cc1ccccc1)NC(=O)[C@@H](NC(=O)CNC(=O)[C@H](CCC(=O)O)NC(=O)C(C)(C)NC(=O)[C@@H](N)Cc1ccc(O)cc1)[C@@H](C)O)[C@@H](C)O)[C@@H](C)CC)C(C)C)C(=O)N[C@@H](C)C(=O)N[C@@H](Cc1c[nH]c2ccccc12)C(=O)N[C@@H](CC(C)C)C(=O)N[C@H](C(=O)N[C@@H](CCCCN)C(=O)NCC(N)=O)C(C)C
[1]
  EC50, GLP-1 Receptor cAMP induction: 12.7 nM
[2]
  EC50, GIP Receptor cAMP induction: 0.5 nM
  Relative Potency, GIP Receptor: 34%

B6: Analog 052-2 (peptide)
peptide: Y[Aib]EGTFTSDYSEYMEKEAVREFIAWLVKG-NH2
modifications: lactam 12-16; N-terminus assumed
SMILES: CC[C@H](C)[C@H](NC(=O)[C@H](Cc1ccccc1)NC(=O)[C@H](CCC(=O)O)NC(=O)[C@H](CCCNC(=N)N)NC(=O)[C@@H](NC(=O)[C@H](C)NC(=O)[C@H](CCC(=O)O)NC(=O)[C@@H]1CCCCNC(=O)CC[C@H](NC(=O)[C@H](CO)NC(=O)[C@H](Cc2ccc(O)cc2)NC(=O)[C@H](CC(=O)O)NC(=O)[C@H](CO)NC(=O)[C@@H](NC(=O)[C@H](Cc2ccccc2)NC(=O)[C@@H](NC(=O)CNC(=O)[C@H](CCC(=O)O)NC(=O)C(C)(C)NC(=O)[C@@H](N)Cc2ccc(O)cc2)[C@@H](C)O)[C@@H](C)O)C(=O)N[C@@H](Cc2ccc(O)cc2)C(=O)N[C@@H](CCSC)C(=O)N[C@@H](CCC(=O)O)C(=O)N1)C(C)C)C(=O)N[C@@H](C)C(=O)N[C@@H](Cc1c[nH]c2ccccc12)C(=O)N[C@@H](CC(C)C)C(=O)N[C@H](C(=O)N[C@@H](CCCCN)C(=O)NCC(N)=O)C(C)C
[1]
  EC50, GLP-1 Receptor cAMP induction: 0.824 nM
  Relative Potency, GLP-1 Receptor: 133%
[2]
  EC50, GIP Receptor cAMP induction: 0.064 nM
  Relative Potency, GIP Receptor: 147%

B7: Analog 052-1 (peptide)
peptide: Y[Aib]EGTFTSDYSEYMEKEAVREFIAWLVKG-NH2
modifications: N-terminus assumed
SMILES: CC[C@H](C)[C@H](NC(=O)[C@H](Cc1ccccc1)NC(=O)[C@H](CCC(=O)O)NC(=O)[C@H](CCCNC(=N)N)NC(=O)[C@@H](NC(=O)[C@H](C)NC(=O)[C@H](CCC(=O)O)NC(=O)[C@H](CCCCN)NC(=O)[C@H](CCC(=O)O)NC(=O)[C@H](CCSC)NC(=O)[C@H](Cc1ccc(O)cc1)NC(=O)[C@H](CCC(=O)O)NC(=O)[C@H](CO)NC(=O)[C@H](Cc1ccc(O)cc1)NC(=O)[C@H](CC(=O)O)NC(=O)[C@H](CO)NC(=O)[C@@H](NC(=O)[C@H](Cc1ccccc1)NC(=O)[C@@H](NC(=O)CNC(=O)[C@H](CCC(=O)O)NC(=O)C(C)(C)NC(=O)[C@@H](N)Cc1ccc(O)cc1)[C@@H](C)O)[C@@H](C)O)C(C)C)C(=O)N[C@@H](C)C(=O)N[C@@H](Cc1c[nH]c2ccccc12)C(=O)N[C@@H](CC(C)C)C(=O)N[C@H](C(=O)N[C@@H](CCCCN)C(=O)NCC(N)=O)C(C)C
[1]
  EC50, GLP-1 Receptor cAMP induction: 2.5 nM
[2]
  EC50, GIP Receptor cAMP induction: 0.57 nM
  Relative Potency, GIP Receptor: 36.8%
